In patent US7083511B1, “Methods” (The University of Dundee, priority 1998, dated 2006):

Tests used:
Assay type in all cases: biochemical
SGK2 = biological target: T1, SGK2 (Homo sapiens, UniProt Q9HBY8, S356D); experiment: Activity of SGK2 toward synthetic peptides related to Crosstide; details: each peptide 30 μM, average of two experiments
T1 construct: pEBG-SGK2α expressing full length of SGK2α; made in house; host or cells: 293 cells (pEBG-2T-2 vector)
T1 sequence (Q9HBY8 1-367 S356D): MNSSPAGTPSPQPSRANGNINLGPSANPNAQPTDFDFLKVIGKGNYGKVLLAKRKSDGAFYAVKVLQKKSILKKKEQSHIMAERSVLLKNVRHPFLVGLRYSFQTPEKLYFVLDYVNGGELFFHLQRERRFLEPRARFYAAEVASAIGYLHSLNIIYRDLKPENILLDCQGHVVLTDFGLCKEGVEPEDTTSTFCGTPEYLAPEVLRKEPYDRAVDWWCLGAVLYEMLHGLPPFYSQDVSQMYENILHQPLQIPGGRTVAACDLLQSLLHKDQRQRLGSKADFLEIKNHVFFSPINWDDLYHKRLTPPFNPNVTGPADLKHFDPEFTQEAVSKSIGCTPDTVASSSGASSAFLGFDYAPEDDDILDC
Experimental: Each GST-SGK isoform (0.4 μg) was incubated for 20 min at 30° C. with protein phosphatase 2A (PP2A, 30 mU/ml) in a 10 μl incubation containing 20 mM Tris/HCl, pH 7.5, 0.1% (v/v) 2-mercaptoethanol, 0.1 mM EGTA and 1 mg/ml bovine serum albumin. After addition of microcystin-LR to 1 μM to inactivate PP2A, SGK (0.4 μg) was phosphorylated for 30 min at 30° C. in a mixture (20 μl) containing 50 mM Tris/HCl, pH 7.5, 10 mM MgCl2, 0.1% (v/v) 2-mercaptoethanol, 0.1 mM EGTA, GST-PDK1 (0.03–300 ng) diluted in Buffer C and 100 μM unlabelled ATP. […] ID. NO:30) and 4.2 μM of residues 5–24 of the specific protein inhibitor of adenosine 3′5′ cyclic monophosphate-dependent protein kinase. After 10 min at 30° C., the reactions were terminated by spotting aliquots on to P81 phosphocellulose paper, followed by immediate immersion in 75 mM phosphoric acid. The papers were washed, dried and analysed. One unit (U) of SGK was that amount which phosphorylated 1 nmole of Crosstide in one min.

SGK = biological target: T2, SGK (Homo sapiens, UniProt O00141, S422D); experiment: Activity of SGK towards synthetic peptides related to Crosstide; details: GST-ΔN-SGK from 293 cells activated by PDK1; each peptide 30 μM
T2 construct: made in house; host or cells: human embryonic kidney 293 cells (pEBG-2T vector)
T2 sequence (O00141 61-431 S422D): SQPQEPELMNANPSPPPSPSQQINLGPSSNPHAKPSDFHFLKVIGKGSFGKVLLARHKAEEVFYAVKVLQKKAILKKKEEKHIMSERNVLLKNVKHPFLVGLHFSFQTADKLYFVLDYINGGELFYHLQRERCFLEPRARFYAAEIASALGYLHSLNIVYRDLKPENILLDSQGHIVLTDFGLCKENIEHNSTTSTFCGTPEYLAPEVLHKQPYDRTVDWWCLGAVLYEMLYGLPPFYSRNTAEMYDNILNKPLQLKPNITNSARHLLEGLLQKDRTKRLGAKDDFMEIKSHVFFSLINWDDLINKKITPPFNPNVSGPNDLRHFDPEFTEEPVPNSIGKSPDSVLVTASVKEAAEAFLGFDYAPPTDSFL
Experimental: Phosphorylation and assay of SGK. Phosphorylation was carried out at 30° C. in 50 μl incubations containing 50 mM Tris/HCl pH 7.5, 0.1 mM EGTA, 0.1% (v/v) 2-mercaptoethanol, 2.5 μM PKI, 1 μM microcystin-LR, 10 mM magnesium chloride and 100 μM ATP. Where indicated lipid vesicles containing phosphatidylcholine (100 μM), phosphatidyl serine (100 μM) and PtdIns(3,4,5)P3 (1 μM) were also included. SGK activity was assayed exactly as described for PKB [6] using the peptide […] (SEQ. ID. NO:30) (“Crosstide”) at 30 μM as substrate. One unit of activity (U) was that amount which catalysed the phosphorylation of […] of Crosstide in one min.

PKBα = biological target: T3, PKBα (Homo sapiens, UniProt P31749); experiment: Activity of PKBα towards synthetic peptides related to Crosstide; details: GST-PKBα from 293 cells activated by PDK1; each peptide 30 μM
T3 construct: pEBG-PKBa expressing full length PKBα; made in house; host or cells: 293 cells (pEBG-PKBα)

SGK3 = biological target: T4, SGK3 (Homo sapiens, UniProt Q96BR1, S486D); experiment: Activity of SGK3 toward synthetic peptides related to Crosstide; details: each peptide 30 μM, average of two experiments
T4 construct: SGK3 lacking the N-terminal 52 residues (ΔN-SGK3[53–429]); made in house; host or cells: 293 cells (pEBG-2T-2 vector)
T4 sequence (Q96BR1 120-496 S486D): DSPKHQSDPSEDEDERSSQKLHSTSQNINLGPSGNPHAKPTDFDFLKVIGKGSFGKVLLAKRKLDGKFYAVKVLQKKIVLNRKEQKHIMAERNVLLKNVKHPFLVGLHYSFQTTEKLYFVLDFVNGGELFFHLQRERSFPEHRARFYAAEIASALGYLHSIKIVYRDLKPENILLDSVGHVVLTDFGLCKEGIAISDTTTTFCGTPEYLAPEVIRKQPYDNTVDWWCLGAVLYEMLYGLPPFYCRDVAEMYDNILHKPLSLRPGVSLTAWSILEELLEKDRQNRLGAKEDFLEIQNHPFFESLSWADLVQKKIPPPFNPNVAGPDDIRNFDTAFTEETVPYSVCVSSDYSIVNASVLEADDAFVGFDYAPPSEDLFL

SGK1 = biological target: T5, SGK1 (Homo sapiens, UniProt O00141, S422D); experiment: Activity of SGK1 toward synthetic peptides related to Crosstide; details: each peptide 30 μM, average of two experiments
T5 construct: made in house; host or cells: human embryonic kidney 293 cells (pEBG-2T vector)
T5 sequence (O00141 61-431 S422D): T2 sequence (O00141 61-431 S422D)

[1] = GST-SGK2α[S356D] from 293 cells
[2] = GST-ΔN-SGK3[S419D] from 293 cells
[3] = GST-ΔN-SGK1[S422D] from 293 cells

T3 sequence (P31749 whole entry, species assumed): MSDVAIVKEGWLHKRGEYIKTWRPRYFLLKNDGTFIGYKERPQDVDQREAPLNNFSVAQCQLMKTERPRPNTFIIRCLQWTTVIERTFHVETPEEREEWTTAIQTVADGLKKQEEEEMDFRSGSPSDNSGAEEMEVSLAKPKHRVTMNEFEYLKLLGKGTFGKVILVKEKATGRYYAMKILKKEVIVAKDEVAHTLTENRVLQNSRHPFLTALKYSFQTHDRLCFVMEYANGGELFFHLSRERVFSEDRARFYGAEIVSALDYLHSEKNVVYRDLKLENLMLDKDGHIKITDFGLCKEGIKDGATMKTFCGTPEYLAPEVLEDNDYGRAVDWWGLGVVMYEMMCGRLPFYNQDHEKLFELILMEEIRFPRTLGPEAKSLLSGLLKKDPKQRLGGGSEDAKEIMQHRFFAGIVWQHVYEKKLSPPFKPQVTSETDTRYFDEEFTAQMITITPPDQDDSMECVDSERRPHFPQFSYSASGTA

Substance	SGK2 activity % relative to peptide 1 (Crosstide) (SGK2; [1])	SGK activity relative to peptide 1 (Crosstide) (SGK)	PKBα activity relative to peptide 1 (Crosstide) (PKBα)	SGK3 activity % relative to peptide 1 (Crosstide) (SGK3; [2])	SGK1 activity % relative to peptide 1 (Crosstide) (SGK1; [3])	SGK2 activity % relative to peptide 1 (Crosstide) (SGK2; […])	SGK3 activity % relative to peptide 1 (Crosstide) (SGK3; […])	SGK1 activity % relative to peptide 1 (Crosstide) (SGK1; […])
GRPRTSSFAEG [Peptide 1, ID; NO: 30, reference compound]	100%	100%	100%	100%	100%			
KPRTSSF [Peptide 8, ID; NO: 37]	<1%	2%	6%	<1%	<1%			
PRTSSF [Peptide 4, ID; NO: 33]	<1%	<1%	<1%	<1%	<1%			
RPKTSSF [Peptide 9, ID; NO: 38]	8%	49%	26%	48%	11%			
RPRAATF [Peptide 7]		73%	55%			61%	56%	44%
RPRTSAF [Peptide 3, ID; NO: 32]	<1%	<1%	<1%	<1%	<1%			
RPRTSS [Peptide 5, ID; NO: 31]	8%	10%	<1%	18%	5.1%			
RPRTSSA [Peptide 13, ID; NO: 42]	82%	107%	26%	123%	49%			
RPRTSSE [Peptide 15, ID; NO: 44]	34%	84%	21%	67%	28%			
RPRTSSF [Peptide 2, ID; NO: 39]	182%	154%	160%	137%	135%			
RPRTSSK [Peptide 14, ID; NO: 43]	128%	146%	48%	200%	84%			
RPRTSSL [Peptide 11, ID; NO: 40]	185%	135%	69%	113%	108%			
RPRTSSV [Peptide 12, ID; NO: 41]	124%	131%	67%	139%	90%			
RPRTSTF [Peptide 6, ID; NO: 35]	192%	156%	208%	156%	129%			
